Experimental data reported in paper PMC4546058, “The Energetics of Streptococcal Enolase Octamer Formation: The Quantitative Contributions of the Last Eight Amino Acids at the Carboxy-Terminus” (PLoS ONE, 2015).

Biological target: the molecule itself
Assay: AUC; sedimentation velocity, Beckman XL-I, 20°C, 30 000-37 000 RPM, TME-SO4 (50 mM Tris, 1 mM MgSO4, 0.1 mM EDTA, 44 mN H2SO4, pH 7.4); c(s) in Sedfit; octamer to 8 monomers

B1: Str enolase DB (Streptococcus pyogenes enolase, sequence of accession number NP_268959.1) (enzyme, UniProt P69949 1-435, looked up)
chain: MSIITDVYAREVLDSRGNPTLEVEVYTESGAFGRGMVPSGASTGEHEAVELRDGDKSRYLGLGTQKAVDNVNNIIAEAIIGYDVRDQQAIDRAMIALDGTPNKGKLGANAILGVSIAVARAAADYLEVPLYTYLGGFNTKVLPTPMMNIINGGSHSDAPIAFQEFMIMPVGAPTFKEGLRWGAEVFHALKKILKERGLVTAVGDEGGFAPKFEGTEDGVETILKAIEAAGYEAGENGIMIGFDCASSEFYDKERKVYDYTKFEGEGAAVRTSAEQVDYLEELVNKYPIITIEDGMDENDWDGWKVLTERLGKRVQLVGDDFFVTNTEYLARGIKENAANSILIKVNQIGTLTETFEAIEMAKEAGYTAVVSHRSGETEDSTIADIAVATNAGQIKTGSLSRTDRIAKYNQLLRIEDQLGEVAQYKGIKSFYNLKK
notes: PDB 3ZLH is the same protein with E77K; also called Streptococcal enolase; source: stored in saturated ammonium sulfate, dialyzed against TME-SO4
- stoichiometry N: 8
